Laboratory results reported in the supplement of paper PMC10567573.

B1: ATL3 (parent)
chain: QELEEEIKELYENFCKHNGSKNVF

Variants of: B1
Assay: protein stability index of a GFP-peptide fusion (GPS, HEK-293T) (PSI 1-6); higher = more stable
Conditions: c terminus: a fixed tail appended
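Note: lentivirally expressed fusions sorted by FACS into six bins by GFP to DsRed ratio, PSI derived from sequencing read proportions per bin multiplied by bin number.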

Protein stability index, by site and new letter:
L10: Y 3.92; T 4.54; R 4.2; W 3.06; D 4.46; G 4.41; H 4.33; S 4.25; V 4.12; F 3.23; M 3.02; C 4.14; K 3.92; I 3.14; N 4.05; E 4.5; A 3.48; P 4.23; Q 3.88
N13: Q 2.13; C 2.26; Y 2.34; F 2.72; K 2.15; E 2.11; D 3.15; A 1.72; T 2.86; L 1.83; P 3.73; R 2.55; G 3.76; I 2.13; V 2.89; M 1.79; H 2.83; S 2.6; W 2.37
H17: E 2.51; M 2.96; A 2.52; D 2.69; N 2.51; G 2.75; C 2.65; F 3.2; I 2.94; L 2.99; K 2.67
F14: I 3.16; K 4.5; V 3.53; R 4.1; H 4.07; M 4.06; N 4.55; C 3.75; D 4.46; P 4.37; T 3.69; Q 4.49; G 4.42; L 3.27; E 5.25; Y 3.53; A 4.29; W 2.58; S 4.58
Y11: T 4.3; V 3.93; D 5.09; C 4.16; L 3.61; W 2.96; P 5.15; Q 4.58; K 4.88; I 3.64; S 4.61; F 2.64; G 4.74; M 3.96; A 4.25; R 4.39; E 4.54; H 4.46; N 4.68
K16: F 3.11; W 2.91; V 3.15; E 3.81; G 3.51; D 3.53; H 2.74; T 3.03; M 2.79; C 3.43; S 2.99; Y 2.49; I 2.86; L 3.09; P 3.88; N 2.36; R 2.73; A 3.17; Q 3.11
E12: R 2.19; T 2.83; A 2.37; V 2.42; C 2.35; S 3.13; Y 2.03; I 2.27; P 3.31; K 2.67; D 2.89; W 1.98; L 2.12; F 2.56; Q 2.39; M 2.41; H 2.81; N 2.53; G 3.27
K8: Y 2.37; W 2.68; V 3.19; T 3.31
C15: D 4.08; S 3.89; E 3.86; L 1.97; Q 3.67; W 3.73; A 3.86; I 2.07; H 4.12; P 3.91; Y 3.77; T 3.5; F 3.03; N 3.97; R 3.3; V 2.27; G 4.07; K 3.49; M 2.02
E9: H 2.27; Q 2.22; V 2.4; G 2.44; K 2.38; I 1.95; P 3.24; W 2.41; N 2.77; L 1.64; Y 2.09; S 2.39; A 2.37; T 2.59; R 2.59; D 3.39; C 2.69; F 1.86; M 2.47
